Paper PMC6754406, “Ran pathway-independent regulation of mitotic Golgi disassembly by Importin-α” (Nature Communications, 2019)
Values belong to the substance of their own block, whether it stands above or below them.

Key:
[1] = biological target: GM130-NLS phospho-S25 (synthetic peptide with a phosphate moiety on Ser-25 of GM130, a.a. 13-40) (human); assay: ITC; MicroCal iTC200, 25 °C, 20 mM HEPES pH 7.4, 1 mM DTT, with either 50 or 200 mM NaCl (which one is shown only in the figures); one-sites binding model
[2] = biological target: GST-GM130-S25D (a.a. 1-85) (human); assay: pull-down; GST-GM130 (or GST-IBB) and the recombinant partner at 1:1 molar ratio on glutathione sepharose beads, wash with 150 mM NaCl, elution with 50 mM reduced glutathione, SDS-PAGE, Coomassie blue
[3] = biological target: GST-GM130-S25D (a.a. 1-85) (human); assay: pull-down; competition: p115-CTD with GST-GM130-WT or GST-GM130-S25D and increasing concentrations of Importin-α FL (up to 40 μM); GST beads, SDS-PAGE, Coomassie blue, band intensities normalised by GST-GM130
[4] = biological target: GST-GM130-WT (a.a. 1-85) (human); assay: as above
[5] = biological target: GST-GM130-S25D (a.a. 1-85) (human); assay: pull-down; 5 µM GST-GM130 with HEK293T cell lysate (RIPA buffer) and glutathione sepharose beads, washes with 150 mM NaCl, Western blot for Importin-α and Importin-β
[6] = biological target: GM130-NLS WT peptide (human); assay: ITC; MicroCal iTC200, 25 °C, 20 mM HEPES pH 7.4, 1 mM DTT, with either 50 or 200 mM NaCl (which one is shown only in the figures); one-sites binding model

Sequence of Importin-β, recombinant, non-tagged (Q14974 whole entry): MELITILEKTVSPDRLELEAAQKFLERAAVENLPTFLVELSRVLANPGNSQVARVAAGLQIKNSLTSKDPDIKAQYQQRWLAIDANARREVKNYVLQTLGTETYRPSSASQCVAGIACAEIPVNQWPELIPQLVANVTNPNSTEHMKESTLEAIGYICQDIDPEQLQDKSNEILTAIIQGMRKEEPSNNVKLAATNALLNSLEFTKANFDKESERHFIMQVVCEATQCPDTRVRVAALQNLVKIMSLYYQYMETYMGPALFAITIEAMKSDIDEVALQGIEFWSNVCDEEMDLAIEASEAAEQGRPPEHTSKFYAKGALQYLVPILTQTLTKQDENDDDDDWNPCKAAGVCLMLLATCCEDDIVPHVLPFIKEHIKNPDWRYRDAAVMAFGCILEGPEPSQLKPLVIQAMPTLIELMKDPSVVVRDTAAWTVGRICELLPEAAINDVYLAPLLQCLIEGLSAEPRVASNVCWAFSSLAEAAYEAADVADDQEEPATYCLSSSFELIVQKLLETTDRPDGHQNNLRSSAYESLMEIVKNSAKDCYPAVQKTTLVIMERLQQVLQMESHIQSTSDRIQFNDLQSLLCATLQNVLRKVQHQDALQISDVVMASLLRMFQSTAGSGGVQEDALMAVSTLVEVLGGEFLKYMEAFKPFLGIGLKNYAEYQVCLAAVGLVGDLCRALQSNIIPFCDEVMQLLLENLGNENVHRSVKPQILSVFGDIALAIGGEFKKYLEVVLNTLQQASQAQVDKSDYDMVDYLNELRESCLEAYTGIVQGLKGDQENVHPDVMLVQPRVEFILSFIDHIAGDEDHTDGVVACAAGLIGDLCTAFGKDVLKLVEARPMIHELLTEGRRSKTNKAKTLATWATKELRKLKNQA

- fold lower dissociation constant than GM130-NLS WT [1]: 3.3 fold
- percent of Importin-α FL pulled down relative to Importin-α(ΔIBB) [2]: 50%
- fold Importin-α FL pulldown against wild-type GM130 (40 μM Importin-α FL) [3]: 2 fold
- percent p115-CTD remaining on GM130 with 40 μM Importin-α FL [3]: 20%
- percent p115-CTD remaining on GM130 with 40 μM Importin-α FL [4]: 38%
Substance: Importin-α FL (full-length Importin-α), recombinant (from UniProt P52292 1-529) (natural protein)

- Kd [1]: 126 nM
Substance: Importin-α(ΔIBB) (Importin-α lacking the IBB domain, a.a. 70-524) (from UniProt P52293 70-524) (domain or fragment)

- fold Importin-α pulldown against wild-type GST-GM130 [5]: 1.3 fold
Substance: Importin-α, endogenous in HEK293T cells (from UniProt P52292 1-529) (natural protein)

- Kd [6]: 1200 nM
- fold lower binding constant than the wild-type GM130 peptide [1]: > 1000 fold
Substance: Importin-β, recombinant, non-tagged (from UniProt Q14974 1-876) (natural protein)
